Molecular target: NLRC4 (mouse) (UniProt Q3UP24)

FliC (purified, histidine-tagged) (from UniProt P06179) (ligand)
IL-1β secretion (ELISA) by LPS-primed BMM one hour after protein transfection: 800 pg/mL

PrgJ (purified, histidine-tagged) (from UniProt P41785) (ligand)
IL-1β secretion (ELISA) by LPS-primed BMM one hour after protein transfection: 800 pg/mL
